B1: F1*; the commonest letter at each place (parent)
chain: GAGACCGCAACTGAAAAGTTGTTATCACTTGTCGTAAGACACTTTGGATGGGTTGAAGTTCTGCACGTAGAAGCAAAAGGC

Variants of: B1
Assay: fraction ligated after 30 min (ligated reads / total reads); higher = more ligase activity
Conditions: with F1*sub RNA substrate (template-directed ligation), 42 °C
Experimental: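 Chip-synthesised pool of F1* ligase ribozyme variants (all single and double substitutions, single, double and triple deletions in the catalytic core and GAA bulge, plus designed variants) was transcribed with T7 and reacted as a pool with excess substrate F1*sub for 30 min at 42 C in 50 mM EPPS pH 8.5, 25 mM MgCl2. Ligated and unligated bands were separated by PAGE, barcoded by RT and deep sequenced; fraction ligated = ligated reads / total reads per variant, relative activity = FL / FL of wild type (0.826). Sequences are the DNA template of the ribozyme.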

Variant | fraction ligated
GAGACCGCAACTGAAAAGTTGTTATAACTTGTCGTATGACACTTTGGATGGGTTGAAGTTCTGCACGTAGAAGCAAAAGGC | 0.797
GAGACCGCAACTGAAAAGTTGTTATAACTTGTCGTAAGCCACTTTGGATGGGTTGAAGTTCTGCACGTAGAAGCAAAAGGC | 0.627
GAGACCGCAACTGAAAAGTTGTTATAACTTGTCGTAAGGCACTTTGGATGGGTTGAAGTTCTGCACGTAGAAGCAAAAGGC | 0.75
GAGACCGCAACTGAAAAGTTGTTATAACTTGTCGTAAGTCACTTTGGATGGGTTGAAGTTCTGCACGTAGAAGCAAAAGGC | 0.721
GAGACCGCAACTGAAAAGTTGTTATAACTTGTCGTAAGACCCTTTGGATGGGTTGAAGTTCTGCACGTAGAAGCAAAAGGC | 0.21
GAGACCGCAACTGAAAAGTTGTTATAACTTGTCGTAAGACGCTTTGGATGGGTTGAAGTTCTGCACGTAGAAGCAAAAGGC | 0.761
GAGACCGCAACTGAAAAGTTGTTATAACTTGTCGTAAGACTCTTTGGATGGGTTGAAGTTCTGCACGTAGAAGCAAAAGGC | 0.768
GAGACCGCAACTGAAAAGTTGTTATAACTTGTCGTAAGACACTTTGGCTGGGTTGAAGTTCTGCACGTAGAAGCAAAAGGC | 0.366
GAGACCGCAACTGAAAAGTTGTTATAACTTGTCGTAAGACACTTTGGGTGGGTTGAAGTTCTGCACGTAGAAGCAAAAGGC | 0.123
GAGACCGCAACTGAAAAGTTGTTATAACTTGTCGTAAGACACTTTGGTTGGGTTGAAGTTCTGCACGTAGAAGCAAAAGGC | 0.00798
GAGACCGCAACTGAAAAGTTGTTATAACTTGTCGTAAGACACTTTGGATGGGTTGCAGTTCTGCACGTAGAAGCAAAAGGC | 0.0368
GAGACCGCAACTGAAAAGTTGTTATAACTTGTCGTAAGACACTTTGGATGGGTTGGAGTTCTGCACGTAGAAGCAAAAGGC | 0.096
GAGACCGCAACTGAAAAGTTGTTATAACTTGTCGTAAGACACTTTGGATGGGTTGTAGTTCTGCACGTAGAAGCAAAAGGC | 0.14
GAGACCGCAACTGAAAAGTTGTTATAACTTGTCGTAAGACACTTTGGATGGGTTGACGTTCTGCACGTAGAAGCAAAAGGC | 0.717
GAGACCGCAACTGAAAAGTTGTTATAACTTGTCGTAAGACACTTTGGATGGGTTGAGGTTCTGCACGTAGAAGCAAAAGGC | 0.804
GAGACCGCAACTGAAAAGTTGTTATAACTTGTCGTAAGACACTTTGGATGGGTTGATGTTCTGCACGTAGAAGCAAAAGGC | 0.738
GAGACCGCAACTGAAAAGTTGTTATAAATTGTCGTAAGACACTTTGGATGGGTTGAAGTTCTGCACGTAGAAGCAAAAGGC | 0.64
GAGACCGCAACTGAAAAGTTGTTATAAGTTGTCGTAAGACACTTTGGATGGGTTGAAGTTCTGCACGTAGAAGCAAAAGGC | 0.395
GAGACCGCAACTGAAAAGTTGTTATAATTTGTCGTAAGACACTTTGGATGGGTTGAAGTTCTGCACGTAGAAGCAAAAGGC | 0.584
GAGACCGCAACTGAAAAGTTGTTATAACTTGTAGTAAGACACTTTGGATGGGTTGAAGTTCTGCACGTAGAAGCAAAAGGC | 0.721
GAGACCGCAACTGAAAAGTTGTTATAACTTGTGGTAAGACACTTTGGATGGGTTGAAGTTCTGCACGTAGAAGCAAAAGGC | 0.792
GAGACCGCAACTGAAAAGTTGTTATAACTTGTTGTAAGACACTTTGGATGGGTTGAAGTTCTGCACGTAGAAGCAAAAGGC | 0.829
GAGACCGCAACTGAAAAGTTGTTATAACTTGTCGTAAGAAACTTTGGATGGGTTGAAGTTCTGCACGTAGAAGCAAAAGGC | 0.755

Variant | fraction ligated
GAGACCGCAACTGAAAAGTTGTTATAACTTGTCGTAAGAGACTTTGGATGGGTTGAAGTTCTGCACGTAGAAGCAAAAGGC | 0.793
GAGACCGCAACTGAAAAGTTGTTATAACTTGTCGTAAGATACTTTGGATGGGTTGAAGTTCTGCACGTAGAAGCAAAAGGC | 0.814
GAGACCGCAACTGAAAAGTTGTTATAACTTGTCGTAAGACAATTTGGATGGGTTGAAGTTCTGCACGTAGAAGCAAAAGGC | 0.773
GAGACCGCAACTGAAAAGTTGTTATAACTTGTCGTAAGACAGTTTGGATGGGTTGAAGTTCTGCACGTAGAAGCAAAAGGC | 0.731
GAGACCGCAACTGAAAAGTTGTTATAACTTGTCGTAAGACATTTTGGATGGGTTGAAGTTCTGCACGTAGAAGCAAAAGGC | 0.793
GAGACCGCAACTGAAAAGTTGTTATAACTTATCGTAAGACACTTTGGATGGGTTGAAGTTCTGCACGTAGAAGCAAAAGGC | 0.261
GAGACCGCAACTGAAAAGTTGTTATAACTTCTCGTAAGACACTTTGGATGGGTTGAAGTTCTGCACGTAGAAGCAAAAGGC | 0.226
GAGACCGCAACTGAAAAGTTGTTATAACTTTTCGTAAGACACTTTGGATGGGTTGAAGTTCTGCACGTAGAAGCAAAAGGC | 0.0438
GAGACCGCAACTGAAAAGTTGTTATAACTTGTCATAAGACACTTTGGATGGGTTGAAGTTCTGCACGTAGAAGCAAAAGGC | 0.786
GAGACCGCAACTGAAAAGTTGTTATAACTTGTCCTAAGACACTTTGGATGGGTTGAAGTTCTGCACGTAGAAGCAAAAGGC | 0.805
GAGACCGCAACTGAAAAGTTGTTATAACTTGTCTTAAGACACTTTGGATGGGTTGAAGTTCTGCACGTAGAAGCAAAAGGC | 0.808
GAGACCGCAACTGAAAAGTTGTTATAACTTGTCGTAAAACACTTTGGATGGGTTGAAGTTCTGCACGTAGAAGCAAAAGGC | 0.774
GAGACCGCAACTGAAAAGTTGTTATAACTTGTCGTAACACACTTTGGATGGGTTGAAGTTCTGCACGTAGAAGCAAAAGGC | 0.313
GAGACCGCAACTGAAAAGTTGTTATAACTTGTCGTAATACACTTTGGATGGGTTGAAGTTCTGCACGTAGAAGCAAAAGGC | 0.793
GAGACCGCAACTGAAAAGTTGTTATAACTTGTCGTAAGACACTTTAGATGGGTTGAAGTTCTGCACGTAGAAGCAAAAGGC | 0.73
GAGACCGCAACTGAAAAGTTGTTATAACTTGTCGTAAGACACTTTCGATGGGTTGAAGTTCTGCACGTAGAAGCAAAAGGC | 0.744
GAGACCGCAACTGAAAAGTTGTTATAACTTGTCGTAAGACACTTTTGATGGGTTGAAGTTCTGCACGTAGAAGCAAAAGGC | 0.449
GAGACCGCAACTGAAAAGTTGTTATAACTTGTCGTAAGACACTTTGAATGGGTTGAAGTTCTGCACGTAGAAGCAAAAGGC | 0.762
GAGACCGCAACTGAAAAGTTGTTATAACTTGTCGTAAGACACTTTGCATGGGTTGAAGTTCTGCACGTAGAAGCAAAAGGC | 0.0466
GAGACCGCAACTGAAAAGTTGTTATAACTTGTCGTAAGACACTTTGTATGGGTTGAAGTTCTGCACGTAGAAGCAAAAGGC | 0.235
GAGACCGCAACTGAAAAGTTGTTATAACTTGTCGTAAGACACTTTGGATAGGTTGAAGTTCTGCACGTAGAAGCAAAAGGC | 0.0155
GAGACCGCAACTGAAAAGTTGTTATAACTTGTCGTAAGACACTTTGGATCGGTTGAAGTTCTGCACGTAGAAGCAAAAGGC | 0.0201
GAGACCGCAACTGAAAAGTTGTTATAACTTGTCGTAAGACACTTTGGATTGGTTGAAGTTCTGCACGTAGAAGCAAAAGGC | 0.0739

Variant | fraction ligated
GAGACCGCAACTGAAAAGTTGTTATAACTTGTCGTAAGACACTTTGGATGGGTTAAAGTTCTGCACGTAGAAGCAAAAGGC | 0.618
GAGACCGCAACTGAAAAGTTGTTATAACTTGTCGTAAGACACTTTGGATGGGTTCAAGTTCTGCACGTAGAAGCAAAAGGC | 0.0379
GAGACCGCAACTGAAAAGTTGTTATAACTTGTCGTAAGACACTTTGGATGGGTTTAAGTTCTGCACGTAGAAGCAAAAGGC | 0.249
GAGACCGCAACTGAAAAGTTGTTATAACATGTCGTAAGACACTTTGGATGGGTTGAAGTTCTGCACGTAGAAGCAAAAGGC | 0.786
GAGACCGCAACTGAAAAGTTGTTATAACCTGTCGTAAGACACTTTGGATGGGTTGAAGTTCTGCACGTAGAAGCAAAAGGC | 0.804
GAGACCGCAACTGAAAAGTTGTTATAACGTGTCGTAAGACACTTTGGATGGGTTGAAGTTCTGCACGTAGAAGCAAAAGGC | 0.784
GAGACCGCAACTGAAAAGTTGTTATAACTAGTCGTAAGACACTTTGGATGGGTTGAAGTTCTGCACGTAGAAGCAAAAGGC | 0.791
GAGACCGCAACTGAAAAGTTGTTATAACTCGTCGTAAGACACTTTGGATGGGTTGAAGTTCTGCACGTAGAAGCAAAAGGC | 0.781
GAGACCGCAACTGAAAAGTTGTTATAACTGGTCGTAAGACACTTTGGATGGGTTGAAGTTCTGCACGTAGAAGCAAAAGGC | 0.802
GAGACCGCAACTGAAAAGTTGTTATAACTTGACGTAAGACACTTTGGATGGGTTGAAGTTCTGCACGTAGAAGCAAAAGGC | 0.48
GAGACCGCAACTGAAAAGTTGTTATAACTTGCCGTAAGACACTTTGGATGGGTTGAAGTTCTGCACGTAGAAGCAAAAGGC | 0.545
GAGACCGCAACTGAAAAGTTGTTATAACTTGGCGTAAGACACTTTGGATGGGTTGAAGTTCTGCACGTAGAAGCAAAAGGC | 0.499
GAGACCGCAACTGAAAAGTTGTTATAACTTGTCGAAAGACACTTTGGATGGGTTGAAGTTCTGCACGTAGAAGCAAAAGGC | 0.803
GAGACCGCAACTGAAAAGTTGTTATAACTTGTCGCAAGACACTTTGGATGGGTTGAAGTTCTGCACGTAGAAGCAAAAGGC | 0.807
GAGACCGCAACTGAAAAGTTGTTATAACTTGTCGGAAGACACTTTGGATGGGTTGAAGTTCTGCACGTAGAAGCAAAAGGC | 0.794
GAGACCGCAACTGAAAAGTTGTTATAACTTGTCGTAAGACACATTGGATGGGTTGAAGTTCTGCACGTAGAAGCAAAAGGC | 0.809
GAGACCGCAACTGAAAAGTTGTTATAACTTGTCGTAAGACACCTTGGATGGGTTGAAGTTCTGCACGTAGAAGCAAAAGGC | 0.755
GAGACCGCAACTGAAAAGTTGTTATAACTTGTCGTAAGACACGTTGGATGGGTTGAAGTTCTGCACGTAGAAGCAAAAGGC | 0.547
GAGACCGCAACTGAAAAGTTGTTATAACTTGTCGTAAGACACTATGGATGGGTTGAAGTTCTGCACGTAGAAGCAAAAGGC | 0.792
GAGACCGCAACTGAAAAGTTGTTATAACTTGTCGTAAGACACTCTGGATGGGTTGAAGTTCTGCACGTAGAAGCAAAAGGC | 0.782
GAGACCGCAACTGAAAAGTTGTTATAACTTGTCGTAAGACACTGTGGATGGGTTGAAGTTCTGCACGTAGAAGCAAAAGGC | 0.78
GAGACCGCAACTGAAAAGTTGTTATAACTTGTCGTAAGACACTTAGGATGGGTTGAAGTTCTGCACGTAGAAGCAAAAGGC | 0.366
